Laboratory results: the supplement of paper PMC10724198
± gives the standard deviation of the averaged measurements.

What was measured:
Saccharomyces cerevisiae [1] = assay: protein stability index of tFT-peptide fusion (C-terminal peptide) (PSI (0-1 scale)); higher = more stable (slower turnover)
Experimental: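 MPS profiling in S. cerevisiae of the tFT-X12 degron library: putative degron peptides plus stable controls, 12 aa, fused to the C-terminus of a sfGFP-mCherry timer. Cells are FACS-sorted into 8 mCherry/sfGFP bins and deep-sequenced. PSI runs from 0 (unstable) to 1 (stable). Backgrounds are wild type, das1Δ and doa10Δ at 30 °C, and wild type, das1Δ, cdc34-1 and cdc53-1 at 37 °C; 2-3 technical replicates each.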

Saccharomyces cerevisiae [2] = assay: as above; details: genetic background: wild type; temperature: 30 C
[3] = genetic background: cdc34-1, temperature: 37 C
[4] = genetic background: cdc53-1, temperature: 37 C
[5] = genetic background: das1 deletion, temperature: 30 C
[6] = genetic background: das1 deletion, temperature: 37 C
[7] = genetic background: doa10 deletion, temperature: 30 C
[8] = genetic background: wild type, temperature: 30 C
[9] = genetic background: wild type, temperature: 37 C
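Also: PSI is a weighted mean of sequencing reads over stability bins, variants kept only with over 10 reads, mCherry proximal and sfGFP distal, peptide attached via GGGS linker.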

Sequence | protein stability index (Saccharomyces cerevisiae [1]; [3]) | protein stability index (Saccharomyces cerevisiae [1]; [4]) | protein stability index (Saccharomyces cerevisiae [1]; [5]) | protein stability index (Saccharomyces cerevisiae [1]; [6]) | protein stability index (Saccharomyces cerevisiae [1]; [7]) | protein stability index (Saccharomyces cerevisiae [1]; [8]) | protein stability index (Saccharomyces cerevisiae [1]; [9]) | protein stability index (Saccharomyces cerevisiae [2])
TFLVWSLMAGDR | 0.449 ± 0.033 | 0.5276 ± 0.00077 | 0.447 ± 0.023 | 0.4667 ± 0.0043 | 0.484 ± 0.011 | 0.474 ± 0.043 | 0.459 ± 0.032 | 0.464 ± 0.03
LEVHGSCIFICV | 0.5422 ± 0.0046 | 0.5462 ± 0.0037 | 0.359 ± 0.039 | 0.5674 ± 0.0018 | 0.336 ± 0.041 | 0.374 ± 0.0092 | 0.492 ± 0.026 | 0.444 ± 0.017
SQSNQSIIRKNV | 0.7 ± 0.043 | 0.713 ± 0.0077 | 0.63 ± 0.013 | 0.737 ± 0.016 | 0.296 ± 0.034 | 0.36 ± 0.032 | 0.551 ± 0.069 | 0.453 ± 0.02
YFLFLRLVFLFF | 0.217 ± 0.015 | 0.222 ± 0.032 | 0.233 ± 0.018 | 0.3874 ± 0.0034 | 0.186 ± 0.013 | 0.178 ± 0.018 | 0.257 ± 0.0034 | 0.23 ± 0.032
SPSFLVIFTMLL | 0.528 ± 0.023 | 0.577 ± 0.01 | 0.433 ± 0.034 | 0.6018 ± 0.0041 | 0.438 ± 0.044 | 0.444 ± 0.013 | 0.596 ± 0.017 | 0.468 ± 0.015
SPPSFPPLLLLS | 0.668 ± 0.043 | 0.7368 ± 0.00078 | 0.608 ± 0.015 | 0.7386 ± 0.0036 | 0.326 ± 0.028 | 0.362 ± 0.022 | 0.541 ± 0.028 | 0.48 ± 0.022
SVVFFYPPIFHA | 0.636 ± 0.057 | 0.7392 ± 0.006 | 0.678 ± 0.053 | 0.713 ± 0.016 | 0.28 ± 0.0055 | 0.326 ± 0.027 | 0.549 ± 0.011 | 0.437 ± 0.044
CLTGWFGIFSAP | 0.708 ± 0.019 | 0.755 ± 0.025 | 0.678 ± 0.016 | 0.763 ± 0.02 | 0.695 ± 0.015 | 0.688 ± 0.027 | 0.737 ± 0.015 | 0.7344 ± 0.0021
FILATGKGRWVV | 0.686 ± 0.044 | 0.776 ± 0.017 | 0.636 ± 0.0087 | 0.7432 ± 0.0033 | 0.266 ± 0.0031 | 0.306 ± 0.029 | 0.532 ± 0.024 | 0.333 ± 0.1
PPPPPPPFLFFL | 0.706 ± 0.018 | 0.795 ± 0.019 | 0.643 ± 0.013 | 0.747 ± 0.013 | 0.458 ± 0.015 | 0.472 ± 0.022 | 0.61 ± 0.013 | 0.496 ± 0.061
CFFFCSLFLSFL | 0.439 ± 0.022 | 0.452 ± 0.011 | 0.436 ± 0.022 | 0.498 ± 0.01 | 0.4065 ± 0.001 | 0.35 ± 0.0098 | 0.431 ± 0.015 | 0.3662 ± 0.0032
GRLDHWNKHKYI | 0.528 ± 0.031 | 0.687 ± 0.032 | 0.64 ± 0.0064 | 0.783 ± 0.024 | 0.104 ± 0.013 | 0.0786 ± 0.026 | 0.14 ± 0.032 | 0.184 ± 0.0029
FVWAVGLVSASV | 0.507 ± 0.0064 | 0.527 ± 0.0082 | 0.402 ± 0.022 | 0.561 ± 0.0067 | 0.379 ± 0.013 | 0.414 ± 0.03 | 0.52 ± 0.0091 | 0.503 ± 0.01
GRWVLALCLVCG | 0.165 ± 0.0068 | 0.199 ± 0.0044 | 0.202 ± 0.026 | 0.312 ± 0.0066 | 0.164 ± 0.0086 | 0.194 ± 0.026 | 0.273 ± 0.0044 | 0.289 ± 0.0051
LSLVYFAALFSF | 0.484 ± 0.042 | 0.529 ± 0.033 | 0.409 ± 0.019 | 0.53775 ± 0.00036 | 0.356 ± 0.025 | 0.377 ± 0.043 | 0.4858 ± 0.003 | 0.4709 ± 0.0037
LFLSIFFFHLLF | 0.314 ± 0.023 | 0.251 ± 0.049 | 0.338 ± 0.041 | 0.4359 ± 0.0036 | 0.439 ± 0.045 | 0.313 ± 0.01 | 0.385 ± 0.041 | 0.37 ± 0.033
VFFHFFVCWRFV | 0.184 ± 0.068 | 0.231 ± 0.013 | 0.25 ± 0.032 | 0.3646 ± 0.00069 | 0.0556 ± 0.014 | 0.0548 ± 0.018 | 0.0857 ± 0.0019 | 0.121 ± 0.019

Sequence | protein stability index (Saccharomyces cerevisiae [1]; [3]) | protein stability index (Saccharomyces cerevisiae [1]; [4]) | protein stability index (Saccharomyces cerevisiae [1]; [5]) | protein stability index (Saccharomyces cerevisiae [1]; [6]) | protein stability index (Saccharomyces cerevisiae [1]; [7]) | protein stability index (Saccharomyces cerevisiae [1]; [8]) | protein stability index (Saccharomyces cerevisiae [1]; [9]) | protein stability index (Saccharomyces cerevisiae [2])
FFLVLWSSLLSP | 0.457 ± 0.025 | 0.5545 ± 0.00086 | 0.378 ± 0.035 | 0.572 ± 0.006 | 0.3584 ± 0.0021 | 0.386 ± 0.033 | 0.5441 ± 0.0011 | 0.454 ± 0.036
RFGLPLLVVTWL | 0.445 ± 0.0073 | 0.46 ± 0.0074 | 0.394 ± 0.028 | 0.5314 ± 0.005 | 0.4591 ± 0.0032 | 0.402 ± 0.0044 | 0.512 ± 0.011 | 0.468 ± 0.043
GGCYAGVAMRLI | 0.653 ± 0.02 | 0.729 ± 0.026 | 0.644 ± 0.021 | 0.714 ± 0.042 | 0.632 ± 0.014 | 0.62 ± 0.027 | 0.681 ± 0.025 | 0.76 ± 0.015
GGGVGVVWVRLG | 0.429 ± 0.03 | 0.678 ± 0.035 | 0.618 ± 0.013 | 0.72 ± 0.024 | 0.0905 ± 0.017 | 0.114 ± 0.014 | 0.137 ± 0.017 | 0.256 ± 0.028
FLLEVFVLGRTL | 0.627 ± 0.0076 | 0.653 ± 0.023 | 0.43 ± 0.018 | 0.597 ± 0.0081 | 0.402 ± 0.032 | 0.432 ± 0.022 | 0.577 ± 0.012 | 0.4742 ± 0.0019
SVLSFGVFCLVG | 0.553 ± 0.043 | 0.65407 ± 0.00051 | 0.524 ± 0.023 | 0.61 ± 0.0077 | 0.4185 ± 0.0031 | 0.427 ± 0.033 | 0.527 ± 0.013 | 0.538 ± 0.13
IRVFSFLLFGCF | 0.465 ± 0.027 | 0.503 ± 0.007 | 0.373 ± 0.033 | 0.546 ± 0.03 | 0.358 ± 0.012 | 0.364 ± 0.027 | 0.488 ± 0.02 | 0.44 ± 0.056
FPLGMFWVCFFV | 0.423 ± 0.026 | 0.464 ± 0.0058 | 0.357 ± 0.03 | 0.512 ± 0.025 | 0.181 ± 0.015 | 0.207 ± 0.023 | 0.357 ± 0.015 | 0.264 ± 0.015
FFLDRLVIRLIA | 0.1487 ± 0.00028 | 0.173 ± 0.0047 | 0.248 ± 0.029 | 0.383 ± 0.0071 | 0.0576 ± 0.024 | 0.0715 ± 0.011 | 0.0735 ± 0.014 | 0.105 ± 0.052
GLCLFLIGVFSV | 0.224 ± 0.0031 | 0.313 ± 0.06 | 0.246 ± 0.039 | 0.439 ± 0.022 | 0.2104 ± 0.0019 | 0.237 ± 0.023 | 0.381 ± 0.026 | 0.4425 ± 0.0022
FTNLDYTKEKNN | 0.423 ± 0.15 | 0.6798 ± 0.0014 | 0.623 ± 0.052 | 0.708 ± 0.042 | 0.134 ± 0.012 | 0.146 ± 0.025 | 0.178 ± 0.0045 | 0.29 ± 0.017
LQIKSFTSQRLA | 0.509 ± 0.021 | 0.698 ± 0.0074 | 0.6421 ± 0.0063 | 0.72398 ± 0.0003 | 0.0758 ± 0.016 | 0.0902 ± 0.037 | 0.0965 ± 0.038 | 0.158 ± 0.021
LYIQWVSRWSVQ | 0.611 ± 0.029 | 0.664 ± 0.083 | 0.547 ± 0.035 | 0.669 ± 0.021 | 0.388 ± 0.011 | 0.415 ± 0.019 | 0.5818 ± 0.003 | 0.504 ± 0.025
FFVRSWWVELLF | 0.642 ± 0.029 | 0.719 ± 0.017 | 0.558 ± 0.026 | 0.682 ± 0.024 | 0.296 ± 0.0038 | 0.335 ± 0.031 | 0.5502 ± 0.0055 | 0.424 ± 0.0097
LCFRLVSYLCIN | 0.497 ± 0.054 | 0.694 ± 0.013 | 0.591 ± 0.048 | 0.6781 ± 0.0015 | 0.223 ± 0.0073 | 0.221 ± 0.011 | 0.37 ± 0.013 | 0.39 ± 0.0077
FVIVSSCIGYAL | 0.603 ± 0.039 | 0.641 ± 0.036 | 0.451 ± 0.028 | 0.584 ± 0.0076 | 0.4365 ± 0.0039 | 0.46 ± 0.025 | 0.561 ± 0.032 | 0.499 ± 0.015
